# From PMC2964344
# Conditions: methylation at K27
substance,measurement,value
histone H3: ATXR6 Y243N (SET-domain catalytic mutant) expressed in atxr5 atxr6,other,changes
